Data on 16 sequences can be found in the supplement of paper PMC9170038.

The series deals with MS2 coat protein. The experiment in a line: apparent KD of MS2 coat protein; designed switch direction (-1 OFF switch, 1 ON switch): -1; higher = weaker reporter binding. In a few lines:
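The reported apparent KD is a per-design median over clusters, from curve fits of normalised cluster fluorescence. Protein titrations used SNAP-549-labelled MS2 coat protein, doubled from 0.7 or 1.5 nM to 3 µM, in Tris-HCl pH 7.5 buffer with KCl, MgCl2, BSA, DTT, tRNA and Tween-20, with no input, 200 uM small-molecule ligand, or an oligonucleotide input. The RNA switches were transcribed on Illumina chips by stalled E. coli RNA polymerase.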

[1] abbreviates: Eterna round: R95, input ligand: FMN 200 uM.
Setting [2] is: Eterna round: R95, input ligand: microRNA oligo, concentration not stated.
Setting [3] is: Eterna round: R95, input ligand: none.
[4] abbreviates: input ligand: microRNA oligo, concentration not stated.

Take “AUAAUAAAGGAGGAUAUCGUAACGGAAACGUUACGAGAAGGUCUAACAUGAGGAUCACCCAUGUUCCUCAAAUA [Mat - Exclusion 6 - Eli Mod - D50] (puzzle: Exclusion 6)”: the “apparent KD of MS2 coat protein” value by setting is: under setting [1], 47.8 nM; under setting [2], 35.4 nM; under setting [3], 47 nM.

Take “UUUUAACAUGAGGAUCACCCAUGUGAGGAUAUCAUUUUUUUUUUUUUUUUUUUUUUUUUGAGAAGGCACAUUUU [My solution] (puzzle: Exclusion 1)”: the “apparent KD of MS2 coat protein” value is, setting by setting: under setting [1], 11.9 nM; under setting [2], 37 nM; under setting [3], 14.2 nM.

On to “UUUGUUUAGGUAGGAUAUACUUUUAAUUUCUCUUUCCUUACAUGAGGAUCACCCAUGUUUACAUUGUAGAAGGACCACUUUGUU [JR_ExcNG2_Sub052] (Eterna round: R96, puzzle: Exclusion NG 2)”, for which the “apparent KD of MS2 coat protein” value under setting [4] amounted to 16.5 nM.

In the case of “GGCAGUCGAGGAUAUACGAUCGUGCUUCGGCACGUAAGAUCACAUGAGGAUCACCCAUGUAGAAGGCGACUGCC [Mod 2 - Jieux - Exclusion 2] (Eterna round: R97, puzzle: Exclusion 2)”, the “apparent KD of MS2 coat protein” value is, setting by setting: (input ligand: FMN 200 uM) 214 nM; (input ligand: none) 33.4 nM.

For the sequence “AUGCGACAUGAGGAUCACCCAUGUGAGGAUAUGCGAAUGCAUACUUCGGUGUGAUAGAGCAGAAGGCGCAGGUA [EX1 #16] (Eterna round: R97, puzzle: Exclusion 1)”, the “apparent KD of MS2 coat protein” value is, setting by setting: (input ligand: FMN 200 uM) 560 nM; (input ligand: none) 831 nM.

For “AAAAAGGUAGGAUAUACGAAAAAAAAGGGUAAAAUAAAUAAACAUGAGGAUCACCCAUGUAGAAGGACCAAAAA [Mat - Exclusion 2 - Tesla mod - D38] (Eterna round: R96, puzzle: Exclusion 2)”, the “apparent KD of MS2 coat protein” value under setting [4] is 22.8 nM.

For the sequence “UUAUAUAGUGUGAGGAUAUGCUGGUCCUUGGAUCAGCAGAAGGCACAUGAGGAUCACCCAUGUAGUUAAAUAUA [Mat - Exclusion 4 - JL Mod - D18] (puzzle: Brourd's mod of Exclusion 4)”, the “apparent KD of MS2 coat protein” value reads like this: under setting [1], 252 nM; under setting [2], 31.1 nM; under setting [3], 39.5 nM.

With “AAUAUGUGAGGAUAUCAGGUGUGCUAGCGUACUGGUACAUCUGAGAAGGCACAUGAGGAUCACCCAUGUAUCUU [Mat - Exclusion 4 - Mod of JL - D45] (puzzle: Exclusion 4)”, under setting [2], the “apparent KD of MS2 coat protein” value turned out to be 24.3 nM.

Regarding “CUUAAAAGGUAGGAUAUGCUAGACGAAAGUCUAGCAGAAGGACCUACAUGAGGAUCACCCAUGUGUCCAAUAAG [Mat - Exclusion 6 - Eli Mod - D23] (Eterna round: R97, puzzle: Exclusion 6)”, the “apparent KD of MS2 coat protein” value (input ligand: FMN 200 uM) was 50.6 nM and the “apparent KD of MS2 coat protein” value (input ligand: none) was determined as 86.3 nM.

In the case of “AAUGAGCUAGGAUAUACAUGAGGAUCACCCAUGUAAAAUAGGUCAUGGAGGAACCACUGUAGAAGGAGCAGGGC [Zagereti] (puzzle: Exclusion 3)”, the “apparent KD of MS2 coat protein” value under setting [2] amounted to 47.1 nM.

As to “GAAGGGCGUCUAGGAUAUAGUAUACGGCGAACAUGAGGAUCACCCAUGUGUCCGAAUGCGGCGAGCUAGAAGGAGAAUUCGCCC [Enuseszave] (Eterna round: R96, puzzle: Exclusion NG 2)”, the “apparent KD of MS2 coat protein” value amounted to 72.4 nM (input ligand: FMN 200 uM), 33.4 nM under setting [4] and 49.1 nM (input ligand: none).

For “GGUCCUCUGGUGAGGAUAUCUACCCAGGCAGCUGGAGAGAAGGCACAUGAGGAUCACCCAUGUAGCAGAAAACC [Enremadi] (puzzle: Brourd's mod of Exclusion 4)”, the “apparent KD of MS2 coat protein” value under setting [2] amounted to 9.56 nM.

Regarding “UUUUUCUCAGGAUAUACAUGAGGAUCACCCAUGUAUAUUAAGGAUAAUACAUGGGAAUGUAGAAGGGAGCUCAU [Omei Ex3 Pseudoloop 12] (Eterna round: R97, puzzle: Exclusion 3)”, the “apparent KD of MS2 coat protein” value turned out to be 106 nM (input ligand: FMN 200 uM) and 160 nM (input ligand: none).

On to “GUGACCAUAGGAUAUACAUGAGGAUCACCCAUGUGCAGGUCGGAAGACCCGCGGUCAUGUAGAAGGAUGUAAUU [EX3 A.23] (Eterna round: R97, puzzle: Exclusion 3)”, for which the “apparent KD of MS2 coat protein” value amounted to 18.2 nM (input ligand: FMN 200 uM) and 16.2 nM (input ligand: none).

In the case of “UGAUCUAGCGGAGGAUAUACAUGAGGAUCACCCAUGUAAGUCGCCUUACCGUAGUGAAGCAUCAUGUAGAAGGCCGCUAGAUCU [MOD4 ENG2 3.62 by JL (unstable but ms2 present in dot)] (Eterna round: R96, puzzle: Exclusion NG 2)”, the “apparent KD of MS2 coat protein” value was 153 nM (input ligand: FMN 200 uM), 19.9 nM under setting [4] and 57.3 nM (input ligand: none).

As to “AGUCCUGAAGUUAGGAUAUGAAGUAUCACUGCACUUCAGAAGGGACUUGAGGAUCACCCAAGUAGCCGUGAGGG [salish99_bmod_ex4_r4_002] (Eterna round: R97, puzzle: Brourd's mod of Exclusion 4)”, the “apparent KD of MS2 coat protein” value (input ligand: FMN 200 uM) is 128 nM and the “apparent KD of MS2 coat protein” value (input ligand: none) stood at 70.6 nM.
